Consider 1 molecule from patent publication US9765303B2, “Method for the production of differentiated respiratory epithelial cells” (MEDIZINISCHE HOCHSCHULE HANNOVER, priority 2011, dated 2017).

The subject of this assay is surfactant protein C (SP-C). In words: qRT-PCR of SP-C mRNA in day 24 pluripotent stem cell differentiation cultures. The class given is cell-based, murine. The conditions noted are these: KGF alone; start on day 0 of differentiation compared to later supplementation. On the procedure: This method is based on our 2008 published differentiation protocol^3. To initiate embryoid body (EB) formation “hanging drops” composed of 6×10^2 cells in 20 μl of differentiation medium were generated (day 0 of differentiation). At day 3 of differentiation, EBs (100 EBs/dish) were transferred to non-adherent petri dishes (Greiner) and cultivated in suspension for two additional days. At day 5 of differentiation, 10 EBs/well were seeded on a 0.1% gelatin-coated 6-well culture dish and cultured until day 24 of differentiation. From day 0 to 7 the basal differentiation medium was composed of Iscove's Modified Dulbecco's Medium (IMDM, Invitrogen), 0.2 mM L-glutamine, 0.1 mM β-mercaptoethanol, 0.1 mM non-essential amino acid stock supplemented with 15% FCS and from day 7 to 24 supplemented with 15% serum replacement (Knockout™ SR, Invitrogen). […]
The differentiation medium was replaced by fresh medium every two to three days. The differentiation was stopped on day 24 and differentiation cultures were analyzed for the presence of lung epithelial cells.
qRT-PCR was used to quantify mRNA expression of typical lung epithelial markers, in particular for bronchial/bronchiolar and alveolar epithelial cells. […]
In general terms: In qPCR the cycle at which signal appears reflects the starting amount.

B1: KGF: recombinant human keratinocyte growth factor (Amgen), also referred to as fibroblast growth factor-7 (protein, UniProt P21781 32-194, looked up)
Fibroblast growth factor 7: CNDMTPEQMATNVNCSSPERHTRSYDYMEGGDIRVRRLFCRTQWYLRIDKRGKVKGTQEMKNNYNIMEIRTVAVGIVAIKGVESEFYLAMNKEGKLYAKKECNEDCNFKELILENHYNTYASAKWTHNGGEMFVALNQKGIPVRGKKTKKEQKTAHFLPMAIT
On to B1, for which the “SP-C expression by start of KGF supplementation” value is listed as “highest expression”.
